According to paper PMC12663243 (Scientific Reports, 2025):

Experiments:
[1] = target: human somatostatin receptor 4 (SSTR4), PRESTO-Tango construct (human) (UniProt P31391)
[2] = target: human somatostatin receptor 2 (SSTR2), PRESTO-Tango construct (human) (UniProt P30874)
[3] = target: human somatostatin receptor 1 (SSTR1), PRESTO-Tango construct (human) (UniProt P30872)
Sequence of human somatostatin receptor 1 (SSTR1), PRESTO-Tango construct (human) (P30872 whole entry): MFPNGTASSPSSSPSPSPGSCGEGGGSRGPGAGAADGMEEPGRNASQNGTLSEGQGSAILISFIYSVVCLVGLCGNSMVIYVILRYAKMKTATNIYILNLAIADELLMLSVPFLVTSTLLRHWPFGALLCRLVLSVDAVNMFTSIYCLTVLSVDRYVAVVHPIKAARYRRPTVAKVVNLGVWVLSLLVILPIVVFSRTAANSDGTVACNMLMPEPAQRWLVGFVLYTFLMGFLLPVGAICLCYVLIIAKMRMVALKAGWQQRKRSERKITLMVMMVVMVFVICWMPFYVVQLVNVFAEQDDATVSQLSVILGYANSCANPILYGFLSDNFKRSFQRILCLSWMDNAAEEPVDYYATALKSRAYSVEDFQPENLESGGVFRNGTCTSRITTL

Sequence of human somatostatin receptor 2 (SSTR2), PRESTO-Tango construct (human) (P30874 whole entry): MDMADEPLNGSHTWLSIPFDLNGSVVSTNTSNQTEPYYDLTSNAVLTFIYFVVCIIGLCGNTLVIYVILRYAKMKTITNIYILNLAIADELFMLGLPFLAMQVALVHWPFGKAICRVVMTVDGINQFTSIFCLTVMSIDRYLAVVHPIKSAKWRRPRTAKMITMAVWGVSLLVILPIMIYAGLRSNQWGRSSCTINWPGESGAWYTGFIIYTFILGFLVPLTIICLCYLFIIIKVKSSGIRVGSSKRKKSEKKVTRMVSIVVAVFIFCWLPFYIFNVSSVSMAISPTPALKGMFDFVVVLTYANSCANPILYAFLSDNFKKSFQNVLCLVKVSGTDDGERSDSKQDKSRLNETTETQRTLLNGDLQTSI
Sequence of human somatostatin receptor 4 (SSTR4), PRESTO-Tango construct (human) (P31391 whole entry): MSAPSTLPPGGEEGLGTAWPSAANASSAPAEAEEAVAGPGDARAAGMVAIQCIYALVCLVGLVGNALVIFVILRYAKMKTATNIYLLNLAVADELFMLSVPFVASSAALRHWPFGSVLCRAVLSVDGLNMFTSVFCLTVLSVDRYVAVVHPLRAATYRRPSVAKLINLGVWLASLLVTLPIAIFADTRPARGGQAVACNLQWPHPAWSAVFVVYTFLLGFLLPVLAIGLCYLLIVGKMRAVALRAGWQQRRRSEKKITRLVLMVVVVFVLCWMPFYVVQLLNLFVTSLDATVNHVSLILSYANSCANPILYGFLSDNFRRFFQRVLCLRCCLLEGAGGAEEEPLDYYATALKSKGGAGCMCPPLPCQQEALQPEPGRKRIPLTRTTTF

Substance | PRESTO-Tango β-arrestin recruitment assay (HTLA cells), EC50 [1] | PRESTO-Tango β-arrestin recruitment assay (HTLA cells), EC50 [2] | PRESTO-Tango β-arrestin recruitment assay (HTLA cells), EC50 [3]
consomatin Fj2 (peptide) | 2000 nM | 200 nM | 
consomatin Pr1 (peptide) |  | 41 nM | 130 nM
